The target of this data set is Zif268 DNA-binding domain (UniProt P08046 P08046:333-421). As to the kind of experiment: apparent; text states optimised peptide Kd equals that of wild-type Zif268; curve only in FIG. 7.

B1: Zif268 consensus site (dsDNA)
DNA 1: GCGTGGGCG
DNA 2: CGCCCACGC
For the molecule B1, the Kd came out at 3 nM.

(Values after patent US6866997, “Nucleic acid binding proteins” (Gendaq Limited).)
